Measured values reported in PMC8602277, “Crystal structures of the elusive Rhizobium etliL-asparaginase reveal a peculiar active site” (Nature Communications, 2021).

What was measured:
[1] = substrate: NC(=O)C[C@H](N)C(=O)O; experiment: ITC, multiple injection mode, Michaelis-Menten fit; assay type: biochemical, Rhizobium etli; conditions: 30 mM phosphate pH 9.0, 37 °C, Zn-containing native enzyme, Hill coefficient 1.6 by separate Hill fit
[2] = target: the molecule itself; experiment: crystal structure; WT ReAV in four crystal forms (OP, MP1, MP2, MC) plus the S-SAD START data set; one or two dimers in the asymmetric unit; crystals grown at 19 °C by hanging drop vapor diffusion
[3] = target: the molecule itself; experiment: SEC; analytical Superdex75 10/300 GL column, 50 mM phosphate buffer pH 7.5 with 20 mM NaCl, room temperature

B1: ReAV (inducible R. etli L-asparaginase, AnsA) (Rhizobium etli CFN 42) (protein)
chain: MTPSEDFVVTDRGGIVENSHRVHAAVVDAKGRLLYALGNPTRMTLARSAAKPAQALAILETEGVAGYGFDDADIALMCASHSSEDRHIARTRAMLSKIKAEEADLRCGGHPSLSEMVNRSWIKQDFIPTAVCSNCSGKHVGMLAGARAIGAGTDGYHLPDHPMQGRVKRTVAELCDLDAGDVEWGTDGCNLPTPAFPLDRLGRIYAKLASAADGSDAGEGQSTRCAALAHIFRAMARHPEMVAGEGRYCTMLMRAFDGALVGKLGADASYAIGVRASDATRQLGTDGALGISVKIEDGNLEMLYAVVTELLERLGIGSPDVRSQLASFHHPQRVNTMGVTTGGVSFPFKLRGSKSNVDDPRLAAVAR
notes: full-length wild type, 367 residues, expressed in E. coli BL21 STAR (DE3) from pET151-D-TOPO, N-terminal His6-tag cut with TEV protease; homodimer, one Zn2+ per subunit
- Km [1]: 4.2 ± 0.3 mM
- kcat [1]: 438 ± 32 s⁻¹

B2: inducible Rhizobium etli L-asparaginase ReAV, wild type (enzyme, Rhizobium etli (strain CFN 42))
chain: MTPSEDFVVTDRGGIVENSHRVHAAVVDAKGRLLYALGNPTRMTLARSAAKPAQALAILETEGVAGYGFDDADIALMCASHSSEDRHIARTRAMLSKIKAEEADLRCGGHPSLSEMVNRSWIKQDFIPTAVCSNCSGKHVGMLAGARAIGAGTDGYHLPDHPMQGRVKRTVAELCDLDAGDVEWGTDGCNLPTPAFPLDRLGRIYAKLASAADGSDAGEGQSTRCAALAHIFRAMARHPEMVAGEGRYCTMLMRAFDGALVGKLGADASYAIGVRASDATRQLGTDGALGISVKIEDGNLEMLYAVVTELLERLGIGSPDVRSQLASFHHPQRVNTMGVTTGGVSFPFKLRGSKSNVDDPRLAAVAR
modifications: Cys249 most likely oxidized, modeled as S-hydroxycysteine in the crystal structures
notes: inducible L-asparaginase ReAV (AnsA) of Rhizobium etli strain CFN 42, encoded on plasmid p42e; printed length 367 residues; also called WT ReAV; AnsA; source: E. coli BL21 STAR (DE3), purified (HisTrap Ni, TEV cleavage, second HisTrap Ni, Superdex 200); not shown: His6, N-terminal, cleaved
- stoichiometry N [2]: 2

B3: ReAV S48A mutant (enzyme, Rhizobium etli (strain CFN 42))
chain: MTPSEDFVVTDRGGIVENSHRVHAAVVDAKGRLLYALGNPTRMTLARAAAKPAQALAILETEGVAGYGFDDADIALMCASHSSEDRHIARTRAMLSKIKAEEADLRCGGHPSLSEMVNRSWIKQDFIPTAVCSNCSGKHVGMLAGARAIGAGTDGYHLPDHPMQGRVKRTVAELCDLDAGDVEWGTDGCNLPTPAFPLDRLGRIYAKLASAADGSDAGEGQSTRCAALAHIFRAMARHPEMVAGEGRYCTMLMRAFDGALVGKLGADASYAIGVRASDATRQLGTDGALGISVKIEDGNLEMLYAVVTELLERLGIGSPDVRSQLASFHHPQRVNTMGVTTGGVSFPFKLRGSKSNVDDPRLAAVAR
notes: inducible L-asparaginase ReAV (AnsA) of Rhizobium etli strain CFN 42; printed length 367 residues; CD spectra indicate incorrect folding or strong structural distortion; source: E. coli BL21 STAR (DE3), mostly in inclusion bodies, soluble part purified as the WT protein; not shown: His6, N-terminal, cleaved
- stoichiometry N [3]: 2

B4: ReAV K51A mutant (enzyme, Rhizobium etli (strain CFN 42))
chain: MTPSEDFVVTDRGGIVENSHRVHAAVVDAKGRLLYALGNPTRMTLARSAAAPAQALAILETEGVAGYGFDDADIALMCASHSSEDRHIARTRAMLSKIKAEEADLRCGGHPSLSEMVNRSWIKQDFIPTAVCSNCSGKHVGMLAGARAIGAGTDGYHLPDHPMQGRVKRTVAELCDLDAGDVEWGTDGCNLPTPAFPLDRLGRIYAKLASAADGSDAGEGQSTRCAALAHIFRAMARHPEMVAGEGRYCTMLMRAFDGALVGKLGADASYAIGVRASDATRQLGTDGALGISVKIEDGNLEMLYAVVTELLERLGIGSPDVRSQLASFHHPQRVNTMGVTTGGVSFPFKLRGSKSNVDDPRLAAVAR
notes: inducible L-asparaginase ReAV (AnsA) of Rhizobium etli strain CFN 42; printed length 367 residues; source: E. coli BL21 STAR (DE3), purified as the WT protein; not shown: His6, N-terminal, cleaved
- stoichiometry N [3]: 2

B5: ReAV S80A mutant (enzyme, Rhizobium etli (strain CFN 42))
chain: MTPSEDFVVTDRGGIVENSHRVHAAVVDAKGRLLYALGNPTRMTLARSAAKPAQALAILETEGVAGYGFDDADIALMCAAHSSEDRHIARTRAMLSKIKAEEADLRCGGHPSLSEMVNRSWIKQDFIPTAVCSNCSGKHVGMLAGARAIGAGTDGYHLPDHPMQGRVKRTVAELCDLDAGDVEWGTDGCNLPTPAFPLDRLGRIYAKLASAADGSDAGEGQSTRCAALAHIFRAMARHPEMVAGEGRYCTMLMRAFDGALVGKLGADASYAIGVRASDATRQLGTDGALGISVKIEDGNLEMLYAVVTELLERLGIGSPDVRSQLASFHHPQRVNTMGVTTGGVSFPFKLRGSKSNVDDPRLAAVAR
notes: as for B3
- stoichiometry N [3]: 2

B6: ReAV C135A mutant (enzyme, Rhizobium etli (strain CFN 42))
chain: MTPSEDFVVTDRGGIVENSHRVHAAVVDAKGRLLYALGNPTRMTLARSAAKPAQALAILETEGVAGYGFDDADIALMCASHSSEDRHIARTRAMLSKIKAEEADLRCGGHPSLSEMVNRSWIKQDFIPTAVCSNASGKHVGMLAGARAIGAGTDGYHLPDHPMQGRVKRTVAELCDLDAGDVEWGTDGCNLPTPAFPLDRLGRIYAKLASAADGSDAGEGQSTRCAALAHIFRAMARHPEMVAGEGRYCTMLMRAFDGALVGKLGADASYAIGVRASDATRQLGTDGALGISVKIEDGNLEMLYAVVTELLERLGIGSPDVRSQLASFHHPQRVNTMGVTTGGVSFPFKLRGSKSNVDDPRLAAVAR
notes: as for B4
- stoichiometry N [3]: 2

B7: ReAV K263A mutant (enzyme, Rhizobium etli (strain CFN 42))
chain: MTPSEDFVVTDRGGIVENSHRVHAAVVDAKGRLLYALGNPTRMTLARSAAKPAQALAILETEGVAGYGFDDADIALMCASHSSEDRHIARTRAMLSKIKAEEADLRCGGHPSLSEMVNRSWIKQDFIPTAVCSNCSGKHVGMLAGARAIGAGTDGYHLPDHPMQGRVKRTVAELCDLDAGDVEWGTDGCNLPTPAFPLDRLGRIYAKLASAADGSDAGEGQSTRCAALAHIFRAMARHPEMVAGEGRYCTMLMRAFDGALVGALGADASYAIGVRASDATRQLGTDGALGISVKIEDGNLEMLYAVVTELLERLGIGSPDVRSQLASFHHPQRVNTMGVTTGGVSFPFKLRGSKSNVDDPRLAAVAR
notes: as for B4
- stoichiometry N [3]: 2
